# Source: PMC3059534
# Changes are numbered by the printed parent chain.
# B1: TP74/TP2680 42 bp duplex with 4 nt 3' overhangs (dsDNA)
# DNA 1: CTGCAGGGTTTTTGTTCCAGTCTGTAGCACTGTGTAAGACAGGCCA
# DNA 2: CTGTCTTACACAGTGCTACAGACTGGAACAAAAACCCTGCAGTACA
# B2: TP74/TP2681 branched substrate (dsDNA)
# DNA 1: B1 DNA 1
# DNA 2: CTAGCTACTTGACACAGTGCTACAGACTGGAACTGACTTCATGCTA
# B3: TP2722/TP2723 90 bp, 5' azide (dsDNA)
# DNA 1: AAGTAAATCATTAATCTAACAATGCGCTCATCGTCATCCTCACATCGGCCTGTCTTACACAGTGCTAAGCTCGGAACAAAAACCCTGCAG
# DNA 2: CTGCAGGGTTTTTGTTCCGAGCTTAGCACTGTGTAAGACAGGCCGATGTGAGGATGACGATGAGCGCATTGTTAGATTAATGATTTACTT
# modifications: 5 phosphorothioates at 5' end of each strand, azidophenacyl (APB) modified
# B4: TP771/TP828 90 bp, 3' azide (dsDNA)
# DNA 1: B3 DNA 1
# DNA 2: B3 DNA 2
# modifications: 5 phosphorothioates at 3' end of each strand, azidophenacyl (APB) modified
# B5: TP2399/TP2400 blunt 100 bp duplex, pull-down (dsDNA)
# DNA 1: GCTAAAGCGAAGAACACTGAAAGGTTCAAAACCTCCACTATAGTCCACTCGCAGTCGTACAAGAGGCTTCTCTGGCTGGTGAGAATTACCCAGACGTTCC
# DNA 2: GGAACGTCTGGGTAATTCTCACCAGCCAGAGAAGCCTCTTGTACGACTGCGAGTGGACTATAGTGGAGGTTTTGAACCTTTCAGTGTTCTTCGCTTTAGC
# How the values were obtained:
# [1] = target: Mre11-Rad50-Xrs2 (MRX);Sae2 (Saccharomyces cerevisiae (budding …, UniProt P32829;P12753;P33301;P46946 1-692;1-1312;1-854;1-345, |)); experiment: EMSA
# M(H125N)RX = M(H125N)RX (Saccharomyces cerevisiae (budding yeast), UniProt P32829;P12753;P33301 1-692;1-1312;1-854, H125N;Mre11); experiment: EMSA
# Sae2 [2] = target: T1, Sae2 (Saccharomyces cerevisiae (budding yeast), UniProt P46946 1-345); experiment: EMSA
# T1 sequence: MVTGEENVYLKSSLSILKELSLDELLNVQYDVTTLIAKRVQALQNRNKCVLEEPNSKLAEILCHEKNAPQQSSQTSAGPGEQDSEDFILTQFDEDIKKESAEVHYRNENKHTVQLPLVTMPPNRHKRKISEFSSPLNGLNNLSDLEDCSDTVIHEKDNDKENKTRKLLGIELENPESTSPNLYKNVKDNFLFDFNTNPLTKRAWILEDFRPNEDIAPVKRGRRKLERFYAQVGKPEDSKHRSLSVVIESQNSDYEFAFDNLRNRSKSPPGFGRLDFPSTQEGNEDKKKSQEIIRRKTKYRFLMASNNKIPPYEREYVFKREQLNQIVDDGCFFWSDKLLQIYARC
# Exo1 D173A = target: T2, Exo1 D173A (Saccharomyces cerevisiae (budding yeast), UniProt P39875 1-702, D173A); experiment: EMSA
# T2 sequence: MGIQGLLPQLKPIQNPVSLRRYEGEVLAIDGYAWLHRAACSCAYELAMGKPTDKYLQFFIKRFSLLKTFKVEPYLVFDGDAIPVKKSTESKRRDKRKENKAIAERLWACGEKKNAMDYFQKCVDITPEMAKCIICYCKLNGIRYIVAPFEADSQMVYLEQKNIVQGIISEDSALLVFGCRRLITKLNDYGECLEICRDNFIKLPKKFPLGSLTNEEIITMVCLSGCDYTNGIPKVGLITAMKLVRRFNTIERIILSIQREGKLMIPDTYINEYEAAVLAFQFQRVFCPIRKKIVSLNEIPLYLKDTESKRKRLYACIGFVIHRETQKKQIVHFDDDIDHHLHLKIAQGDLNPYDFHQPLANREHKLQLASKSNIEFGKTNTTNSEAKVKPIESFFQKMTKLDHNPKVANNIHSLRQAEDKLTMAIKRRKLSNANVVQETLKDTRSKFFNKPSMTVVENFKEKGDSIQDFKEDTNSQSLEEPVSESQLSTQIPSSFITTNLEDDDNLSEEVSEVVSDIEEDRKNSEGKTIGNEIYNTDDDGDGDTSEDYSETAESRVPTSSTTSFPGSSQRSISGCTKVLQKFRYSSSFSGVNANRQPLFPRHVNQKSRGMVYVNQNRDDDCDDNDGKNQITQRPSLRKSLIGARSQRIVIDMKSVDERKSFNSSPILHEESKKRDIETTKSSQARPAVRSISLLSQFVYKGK
# [3] = target: Exo1 (form in crosslinking assay not stated);Mre11-Rad50-Xrs2 (MRX);Sae2 (Saccharomyces cerevisiae (budding …, UniProt P39875;P32829;P12753;P33301;P46946 1-702;1-692;1-1312;1-854;1-345, ||)); experiment: UV photo-crosslinking
# [4] = target: T3, Exo1 (form in crosslinking assay not stated) (Saccharomyces cerevisiae (budding yeast), UniProt P39875 1-702); experiment: UV photo-crosslinking
# T3 sequence: T2 sequence with A173D
# Sae2 [5] = target: T1, Sae2; experiment: UV photo-crosslinking
# [6] = target: Exo1 D173A;Mre11-Rad50-Xrs2 (MRX) (Saccharomyces cerevisiae (budding …, UniProt P39875;P32829;P12753;P33301 1-702;1-692;1-1312;1-854, D173A|)); experiment: pull-down
# Sequence of Exo1 D173A;Mre11-Rad50-Xrs2 (MRX) (Saccharomyces cerevisiae (P32829 whole entry, chain 2 of 3): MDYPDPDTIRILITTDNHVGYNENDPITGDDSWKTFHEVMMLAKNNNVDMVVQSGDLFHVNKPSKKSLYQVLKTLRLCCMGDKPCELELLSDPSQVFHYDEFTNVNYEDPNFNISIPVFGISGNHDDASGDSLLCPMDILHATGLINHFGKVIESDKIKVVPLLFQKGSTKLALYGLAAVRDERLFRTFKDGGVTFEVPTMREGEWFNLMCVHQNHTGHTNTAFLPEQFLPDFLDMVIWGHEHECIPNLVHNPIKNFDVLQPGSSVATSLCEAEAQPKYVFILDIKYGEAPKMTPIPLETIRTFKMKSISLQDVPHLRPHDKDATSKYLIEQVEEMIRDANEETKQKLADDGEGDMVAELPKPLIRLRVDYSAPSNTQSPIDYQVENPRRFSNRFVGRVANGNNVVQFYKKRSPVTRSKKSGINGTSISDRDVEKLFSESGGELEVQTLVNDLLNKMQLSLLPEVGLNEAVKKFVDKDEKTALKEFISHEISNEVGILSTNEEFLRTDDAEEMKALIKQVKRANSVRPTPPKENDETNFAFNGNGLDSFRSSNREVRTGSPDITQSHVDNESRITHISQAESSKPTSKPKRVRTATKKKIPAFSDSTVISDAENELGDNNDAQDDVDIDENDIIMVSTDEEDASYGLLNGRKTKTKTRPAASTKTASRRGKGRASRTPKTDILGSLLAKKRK
# Sequence of Exo1 D173A;Mre11-Rad50-Xrs2 (MRX) (Saccharomyces cerevisiae (P12753 whole entry, chain 3 of 3): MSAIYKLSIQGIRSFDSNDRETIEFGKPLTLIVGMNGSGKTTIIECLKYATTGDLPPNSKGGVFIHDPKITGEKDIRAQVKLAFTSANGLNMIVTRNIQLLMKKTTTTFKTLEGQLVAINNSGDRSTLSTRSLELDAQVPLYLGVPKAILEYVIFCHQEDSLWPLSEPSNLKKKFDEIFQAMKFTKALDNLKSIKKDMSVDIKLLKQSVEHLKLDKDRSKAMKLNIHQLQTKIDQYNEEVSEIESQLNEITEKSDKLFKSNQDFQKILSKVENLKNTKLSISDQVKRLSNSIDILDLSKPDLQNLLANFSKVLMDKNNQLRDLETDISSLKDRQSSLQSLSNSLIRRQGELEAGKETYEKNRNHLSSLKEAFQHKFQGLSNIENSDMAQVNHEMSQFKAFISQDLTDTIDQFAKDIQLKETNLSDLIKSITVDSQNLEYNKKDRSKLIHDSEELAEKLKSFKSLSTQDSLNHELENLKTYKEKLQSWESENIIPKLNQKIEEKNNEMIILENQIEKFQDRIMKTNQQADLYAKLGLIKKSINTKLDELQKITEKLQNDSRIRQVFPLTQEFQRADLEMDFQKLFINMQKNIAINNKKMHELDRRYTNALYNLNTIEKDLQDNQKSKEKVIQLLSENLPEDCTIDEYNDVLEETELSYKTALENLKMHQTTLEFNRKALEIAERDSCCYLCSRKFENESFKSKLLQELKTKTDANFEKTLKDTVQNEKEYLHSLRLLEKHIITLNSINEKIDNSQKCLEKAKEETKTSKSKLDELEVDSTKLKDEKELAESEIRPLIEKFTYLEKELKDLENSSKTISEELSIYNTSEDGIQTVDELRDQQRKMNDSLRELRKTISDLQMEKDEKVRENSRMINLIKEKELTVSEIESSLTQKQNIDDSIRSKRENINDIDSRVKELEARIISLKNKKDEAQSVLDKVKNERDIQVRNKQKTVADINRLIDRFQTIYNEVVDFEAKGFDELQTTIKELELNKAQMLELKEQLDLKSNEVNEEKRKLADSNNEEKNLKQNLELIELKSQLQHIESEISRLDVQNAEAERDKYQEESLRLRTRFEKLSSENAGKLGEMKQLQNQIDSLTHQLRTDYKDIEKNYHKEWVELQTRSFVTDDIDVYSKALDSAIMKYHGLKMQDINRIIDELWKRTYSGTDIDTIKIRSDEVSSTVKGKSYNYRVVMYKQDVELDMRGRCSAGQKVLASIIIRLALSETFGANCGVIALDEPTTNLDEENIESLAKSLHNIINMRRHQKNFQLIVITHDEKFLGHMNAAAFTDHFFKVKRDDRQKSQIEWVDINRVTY
# Sequence of Exo1 D173A;Mre11-Rad50-Xrs2 (MRX) (Saccharomyces cerevisiae (P33301 whole entry, chain 4 of 3): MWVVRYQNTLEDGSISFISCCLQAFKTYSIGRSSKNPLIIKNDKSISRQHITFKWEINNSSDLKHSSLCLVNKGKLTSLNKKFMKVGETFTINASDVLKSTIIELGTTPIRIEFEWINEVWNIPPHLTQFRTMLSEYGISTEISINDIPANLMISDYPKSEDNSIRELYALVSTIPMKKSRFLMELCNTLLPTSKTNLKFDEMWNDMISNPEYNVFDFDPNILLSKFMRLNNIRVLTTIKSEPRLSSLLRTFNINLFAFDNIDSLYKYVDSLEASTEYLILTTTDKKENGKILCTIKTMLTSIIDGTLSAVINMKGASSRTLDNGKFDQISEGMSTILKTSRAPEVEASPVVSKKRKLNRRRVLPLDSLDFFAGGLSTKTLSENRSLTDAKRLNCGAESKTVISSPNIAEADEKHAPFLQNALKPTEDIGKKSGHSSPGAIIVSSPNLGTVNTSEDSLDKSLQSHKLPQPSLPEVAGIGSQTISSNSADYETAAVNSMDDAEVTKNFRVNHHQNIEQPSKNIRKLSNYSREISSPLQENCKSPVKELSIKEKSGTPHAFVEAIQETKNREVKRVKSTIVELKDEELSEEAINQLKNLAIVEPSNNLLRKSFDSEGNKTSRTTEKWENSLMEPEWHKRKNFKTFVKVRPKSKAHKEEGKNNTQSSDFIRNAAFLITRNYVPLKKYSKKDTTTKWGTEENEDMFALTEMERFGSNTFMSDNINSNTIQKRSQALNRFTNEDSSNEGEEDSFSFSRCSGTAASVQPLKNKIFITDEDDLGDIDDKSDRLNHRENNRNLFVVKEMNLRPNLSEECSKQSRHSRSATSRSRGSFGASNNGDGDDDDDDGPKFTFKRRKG
# Sequence of M(H125N)RX (P32829 whole entry H125N, chain 1 of 3): as the sequence (P32829 whole entry, chain 2 of 3) above, with H125N counted along it
# Sequence of M(H125N)RX (P12753 whole entry, stated change not applied, chain 2 of 3): as the sequence (P12753 whole entry, chain 3 of 3) above
# Sequence of M(H125N)RX (P33301 whole entry, stated change not applied, chain 3 of 3): as the sequence (P33301 whole entry, chain 4 of 3) above
# Sequence of Mre11-Rad50-Xrs2 (MRX);Sae2 (Saccharomyces cerevisiae (P32829 whole entry, chain 1 of 3): as the sequence (P32829 whole entry, chain 2 of 3) above
# Sequence of Mre11-Rad50-Xrs2 (MRX);Sae2 (Saccharomyces cerevisiae (P12753 whole entry, chain 2 of 3): as the sequence (P12753 whole entry, chain 3 of 3) above
# Sequence of Mre11-Rad50-Xrs2 (MRX);Sae2 (Saccharomyces cerevisiae (P33301 whole entry, chain 3 of 3): as the sequence (P33301 whole entry, chain 4 of 3) above
# Sequence of Exo1 (form in crosslinking assay not stated);Mre11-Rad50-Xrs2 (MRX);Sae2 (Saccharomyces cerevisiae (P32829 whole entry, chain 2 of 3): as the sequence (P32829 whole entry, chain 2 of 3) above
# Sequence of Exo1 (form in crosslinking assay not stated);Mre11-Rad50-Xrs2 (MRX);Sae2 (Saccharomyces cerevisiae (P12753 whole entry, chain 3 of 3): as the sequence (P12753 whole entry, chain 3 of 3) above
# Sequence of Exo1 (form in crosslinking assay not stated);Mre11-Rad50-Xrs2 (MRX);Sae2 (Saccharomyces cerevisiae (P33301 whole entry, chain 4 of 3): as the sequence (P33301 whole entry, chain 4 of 3) above
binder,measurement,setting,value
B1,binding result,[1],binds
same,binding result,M(H125N)RX,binds
same,binding result,Sae2 [2],binds
B2,binding result,Exo1 D173A,binds
B3,binding result,[3],binds
same,binding result,[4],binds
B4,binding result,Sae2 [5],binds
B5,binding result,[6],binds
